Results reported in patent US20060062780A1.

Experiments:
[1] = target: MOG-reactive B-cell receptor on B cells of anti-MOG transgenic mice; test: flow cytometry on splenocytes, goat-anti-human IgG FITC
[2] = target: MOG-reactive B-cell receptor on B cells of anti-MOG transgenic mice; test: cell-based or functional assay

MOG-Fc fusion protein showed a percent of IgM-positive splenocytes that bound (% of IgM-positive splenocytes) [1] greater than 90 and an ex vivo B cell depletion, splenocytes of anti-MOG transgenic mice, 10 µg/ml, 16 h [2] of 70%.
